In publication doi:10.1101/2023.06.12.544689 (bioRxiv, 2023):

B1: COP-3 (antibody, V domains shown)
VH: EVQLVESGGGLVQPGGSLRLSCAASGFNFYSSSIHWVRQAPGKGLEWVAYISSYSGYTYYADSVKGRFTISADTSKNTAYLQMNSLRAEDTAVYYCARGYGYFDYNFSVGYALDYWGQGTLVTVSS
VL: DIQMTQSPSSLSASVGDRVTITCRASQSVSSAVAWYQQKPGKAPKLLIYSASSLYSGVPSRFSGSRSGTDFTLTISSLQPEDFATYYCQQSHPWYYPITFGQGTKVEIK
B2: cCpE-His10 (domain or fragment)
chain: STDIEKEILDLAAATERLNLTDALNSNPAGNLYDWRSSNSYPWTQKLNLHLTITATGQKYRILASKIVDFNIYSNNFNNLVKLEQSLGDGVKDHYVDISLDAGQYVLVMKANSSYSGNYPYSILFQKF

Key:
[1] = target: C-terminal domain of Clostridium perfringens enterotoxin (cCpE), tagless (Clostridium perfringens, UniProt P01558)
[2] = target: T1, mouse claudin-4, biotinylated (mmCLDN-4-Biotin) (mouse, UniProt O35054 1-210); assay: BLI
T1 sequence: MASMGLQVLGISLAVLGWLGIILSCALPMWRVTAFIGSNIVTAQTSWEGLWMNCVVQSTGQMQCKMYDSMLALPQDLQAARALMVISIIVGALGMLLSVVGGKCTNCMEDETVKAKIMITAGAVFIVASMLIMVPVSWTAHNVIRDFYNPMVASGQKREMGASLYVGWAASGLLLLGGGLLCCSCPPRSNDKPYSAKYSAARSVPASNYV

[3] = target: T2, human claudin-4, biotinylated (hsCLDN-4-Biotin) (human, UniProt O14493 1-209); assay: BLI
T2 sequence: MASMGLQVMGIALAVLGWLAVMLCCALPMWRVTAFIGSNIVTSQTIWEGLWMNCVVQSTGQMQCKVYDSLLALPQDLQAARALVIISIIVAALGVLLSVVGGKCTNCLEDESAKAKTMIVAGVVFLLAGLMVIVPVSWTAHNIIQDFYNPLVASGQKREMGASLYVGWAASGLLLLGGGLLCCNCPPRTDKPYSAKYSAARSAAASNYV

[4] = target: T3, human claudin-9, biotinylated (hsCLDN-9-Biotin) (human, UniProt O95484); assay: BLI
T3 sequence: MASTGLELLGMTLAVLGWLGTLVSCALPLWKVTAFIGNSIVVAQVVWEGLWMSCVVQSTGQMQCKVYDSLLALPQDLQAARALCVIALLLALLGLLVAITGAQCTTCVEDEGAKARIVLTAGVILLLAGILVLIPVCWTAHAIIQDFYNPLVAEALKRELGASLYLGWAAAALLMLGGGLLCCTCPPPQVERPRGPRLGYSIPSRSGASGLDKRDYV

Binder | binding result [1] | Kd [2] | Kd [3] | Kd [4]
B1 | binds | – | – | –
B2 | – | < 12 nM | < 12 nM | < 12 nM
